Results reported in US6465220B1, “Glycosylation using GalNac-T4 transferase” (GlycoZym ApS, priority 1998, dated 2002).

Key:
Type in all cases: biochemical
[1] = molecular target: T1, GalNAc-T3 (Homo sapiens, UniProt Q14435); assay: GalNAc-transferase assay with purified recombinant GalNAc-T3; conditions: acceptor substrate
T1 construct: Control constructs pAcGP67-GalNAc-T1-sol, pAcGP67-GalNAc-T2-sol, pAcGP67-GalNAc-T3-sol, and pAcGP67-O^2-sol were prepared as previously described; made in house; host or cells: insect cells (baculovirus, pAcGP67)
T1 sequence (Q14435 38-633 limits assumed): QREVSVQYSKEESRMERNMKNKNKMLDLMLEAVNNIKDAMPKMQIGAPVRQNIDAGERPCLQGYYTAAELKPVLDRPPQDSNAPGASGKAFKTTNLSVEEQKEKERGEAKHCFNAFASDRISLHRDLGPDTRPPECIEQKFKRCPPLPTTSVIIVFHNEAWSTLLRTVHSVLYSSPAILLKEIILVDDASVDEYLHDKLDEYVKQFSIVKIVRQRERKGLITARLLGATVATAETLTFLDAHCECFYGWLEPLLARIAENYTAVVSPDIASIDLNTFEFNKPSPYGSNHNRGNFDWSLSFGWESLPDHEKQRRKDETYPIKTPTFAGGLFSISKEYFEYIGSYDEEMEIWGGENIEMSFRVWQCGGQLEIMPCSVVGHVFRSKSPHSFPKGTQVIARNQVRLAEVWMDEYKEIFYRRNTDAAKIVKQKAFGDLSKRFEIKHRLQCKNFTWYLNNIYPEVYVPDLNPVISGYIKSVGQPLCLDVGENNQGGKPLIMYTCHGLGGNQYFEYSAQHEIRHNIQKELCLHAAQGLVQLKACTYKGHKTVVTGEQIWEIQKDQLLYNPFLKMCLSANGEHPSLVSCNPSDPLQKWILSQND
Method: (§1) The following examples are provided to illustrate certain preferred embodiments of the invention, and should be considered as illustration and not as limitation. In the examples, GalNAc-transferase assays were performed in 50 μl total reaction mixtures containing 25 mM cacodylate (pH 7.5), 10 mM MnCl2, 0.1-0.25% Triton X-100, 150-200 μM UDP-[^14C]-GalNAc (4,000 cpm/nmole) (Amersham) and 0.06-1 mM acceptor peptides. Peptides were either synthesized or obtained from Carlbiotech (Copenhagen), or Neosystems (Strasbourg), and quality was ascertained by amino acid analysis and mass spectrometry. Peptides Muc-1a, Muc-1b, and TAP24, were derived from the tandem repeat of human MUC1, Gendler et al., J. Biol. Chem. 265:15286 (1990), and Muc2, Muc5AC, and Muc7 from the tandem repeats of MUC2, MUC5AC, and MUC7, respectively. Gum et al., J. Biol. Chem. 264:6480 (1989); Porchet et al., Biochem. Soc. Trans. 23:800 (1995); Bobek et al., J. Biol. Chem. 268:20563 (1993). GalNAc4TAP24 was produced by in vitro glycosylation using GalNAc-T2 as described in Wandall et al., J. Biol. Chem. 272:23503 (1997). Products were quantified by scintillation counting after chromatography on Dowex-1, octadecyl silica cartridges (Bakerbond), or HPLC (PC3.2/3 or mRPC C2/C18 SC2.1/10 Pharmacia, Smart System). Products produced by in vitro glycosylation were in most cases also confirmed by mass spectrometry.
(§2) In this example, GalNAc-T4 was expressed in Sf9 insect cells. Expression constructs designed to contain amino acid residues 32-578 of the coding sequence of the putative GalNAc-T4 gene shown in SEQ ID NO:1 prepared by genomic PCR of two clones containing GalNAc-T4 (described in Bennett et al. (1998), supra) were cloned into a BamHI site of the expression vector pAcGP67 (Pharmingen), and the expression construct was sequenced. The constructs pAcGP67-GalNAc-T4506Vsol and pAcGP67-GalNAc-T4506 I sol, were designed to yield a putative soluble form of the GalNAc-T4 protein with an N-terminal end positioned immediately C-terminal to a potential transmembrane domain and including the entire sequence expected to contain the catalytic domain. Control constructs pAcGP67-GalNAc-T1-sol, pAcGP67-GalNAc-T2-sol, pAcGP67-GalNAc-T3-sol, and pAcGP67-O^2-sol were prepared as previously described in White et al., J. Biol. Chem 270:24156 (1995); Bennett et al., J. Biol. Chem. 271:17006 (1996); and Bennett et al., Biochem. Biophys. Res. Comm. 211:347 (1995).

[2] = molecular target: T2, GalNAc-T2 (Homo sapiens, UniProt Q10471); assay: GalNAc-transferase assay with purified recombinant GalNAc-T2
T2 construct: Control constructs pAcGP67-GalNAc-T1-sol, pAcGP67-GalNAc-T2-sol, pAcGP67-GalNAc-T3-sol, and pAcGP67-O^2-sol were prepared as previously described; made in house; host or cells: insect cells (baculovirus, pAcGP67)
Method: as §1, §2
Activities measured with the mucin derived substrates, Muc7, EA2, and Muc2 (see Table I for structures and SEQ ID NOs:19, 25 and 18, respectively), were only 2-7 fold over background values. Very low activities with a few other substrates were also observed, but for many of the “mucin-like” substrates a relative high background with Sf9 cells infected with irrelevant constructs made assessment difficult. GalNAc-T4 was expressed in High Five cells and purified to near homogeneity, however, very low endogenous activity was detected with some substrates in the same fractions when medium from cells infected with irrelevant expression constructs were used in the same purification strategy. The activities presented in Table I were obtained with purified GalNAc-T4 and -T2, and are expressed as mU/mg (the concentration of enzyme protein estimated by SDS-PAGE using BSA as standard). The highest activities with GalNAc-T4 were found from assays of Sf9 medium with the mucin peptides Muc7, EA2, and Muc2, however, the efficiencies with these substrates were considerably lower than GalNAc-T2.

[3] = molecular target: T3, GalNAc-T1 (Homo sapiens, UniProt Q10472); assay: GalNAc-transferase assay with purified recombinant GalNAc-T1; conditions: acceptor substrate
T3 construct: Control constructs pAcGP67-GalNAc-T1-sol, pAcGP67-GalNAc-T2-sol, pAcGP67-GalNAc-T3-sol, and pAcGP67-O^2-sol were prepared as previously described; made in house; host or cells: insect cells (baculovirus, pAcGP67)
T3 sequence (Q10472 41-559 limits assumed): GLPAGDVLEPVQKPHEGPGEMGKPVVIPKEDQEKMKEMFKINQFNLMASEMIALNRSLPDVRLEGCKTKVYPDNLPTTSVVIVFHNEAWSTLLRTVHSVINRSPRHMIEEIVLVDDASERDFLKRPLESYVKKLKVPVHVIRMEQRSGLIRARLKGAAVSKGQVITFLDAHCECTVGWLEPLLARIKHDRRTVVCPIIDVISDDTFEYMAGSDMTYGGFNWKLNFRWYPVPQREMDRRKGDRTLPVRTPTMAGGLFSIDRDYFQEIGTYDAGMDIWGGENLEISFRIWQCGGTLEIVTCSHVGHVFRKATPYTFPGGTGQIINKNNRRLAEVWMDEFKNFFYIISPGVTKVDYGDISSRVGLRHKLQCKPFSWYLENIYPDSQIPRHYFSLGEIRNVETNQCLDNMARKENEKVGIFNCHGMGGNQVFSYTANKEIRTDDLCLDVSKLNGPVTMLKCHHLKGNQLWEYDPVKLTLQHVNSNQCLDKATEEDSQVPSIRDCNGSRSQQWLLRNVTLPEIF
Method: as §1
In this example, GalNAc-T4 was expressed in Sf9 insect cells. Expression constructs designed to contain amino acid residues 32-578 of the coding sequence of the putative GalNAc-T4 gene shown in SEQ ID NO:1 prepared by genomic PCR of two clones containing GalNAc-T4 (described in Bennett et al. (1998), supra) were cloned into a BamHI site of the expression vector pAcGP67 (Pharmingen), and the expression construct was sequenced. […]

Q: What does the source list for “DSTTPAPTTK [EA2, mucin derived substrate]”?
A: Km [1]: 460 µM; Vmax GalNAc-T3 [1]: 0.96 nmol/min/µg; GalNAc-T2 activity with acceptor peptide ([2]; 0.06 mM peptide in 50-μl assay): 152 ± 3 milliunits/mg; GalNAc-T2 activity with acceptor peptide ([2]; 0.25 mM peptide in 50-μl assay): 376 ± 5 milliunits/mg; Km ([2]; acceptor substrate): 850 µM; Vmax GalNAc-T2 ([2]; acceptor substrate): 1.80 nmol/min/µg; Km [3]: 70 µM; Vmax GalNAc-T1 [3]: 0.99 nmol/min/µg
